Results as given in paper PMC3478719.

Molecular target: SIF binding receptor from human spermatozoa (human (endogenous in spermatozoa))
Assay: ITC; microreaction calorimeter, titration mode; 1.5 mL receptor (200 μg mL^-1) in the vial, ligand (500 μg mL^-1) in a 250 μL syringe; PBS

Sperm immobilization factor (SIF) from Staphylococcus aureus (natural protein)
Ka: 1350 M⁻¹ | dH: -2.84 kcal/mol | heat released (ligand 7.5 × 10^-4 μM, receptor 4.8 × 10^-3 μM): 9.7 mJ | heat released (ligand 15.0 × 10^-4 μM, receptor 4.8 × 10^-3 μM): 9 mJ | heat released (ligand 22.5 × 10^-4 μM, receptor 4.8 × 10^-3 μM): 8.6 mJ | heat released (ligand 30.0 × 10^-4 μM, receptor 4.8 × 10^-3 μM): 5.6 mJ | heat released (ligand 37.5 × 10^-4 μM, receptor 4.8 × 10^-3 μM): 2.3 mJ | heat released (ligand 45.0 × 10^-4 μM, receptor 4.8 × 10^-3 μM): 2.1 mJ | heat released (ligand 52.5 × 10^-4 μM, receptor 4.8 × 10^-3 μM): 2 mJ
